Measured values: patent CN113754774A (SUNSHINE GUOJIAN PHARMACEUTICAL SHANGHAI CO LTD, dated 2021)

How the values were obtained:
PD-L1-His [1] = target: T1, PD-L1-His (UniProt Q9NZQ7 19-238, limits assumed); experiment: ELISA, PD-L1-His coated at 10 ng/well
T1 construct: extracellular domain; Made in-house in HEK293F; used as ELISA coat and as Biacore analyte; not shown: C-terminal polyhistidine tag

野生型EGFR on A431 cells = 野生型EGFR on A431 cells (human, UniProt P00533 25-1210); experiment: cell-based or functional assay
EGFR-ECD-hFc [2] = target: T2, EGFR-ECD-hFc (human, UniProt P00533 25-645); experiment: ELISA, EGFR-ECD-hFc coated, HRP anti-human Fab detection (Fig. 2B)
T2 construct: extracellular domain; Made in-house in HEK293F; ELISA coating antigen; not shown: Fc segment of human IgG1

EGFR-ECD-hFc [3] = target: T2, EGFR-ECD-hFc; experiment: ELISA, EGFR-ECD-hFc coated (Fig. 3B)
PD-L1-His [4] = target: T1, PD-L1-His; experiment: ELISA, PD-L1-His coated (Fig. 3A)

Row | binding result (PD-L1-His [1]) | 抑制A431细胞的增殖 IC50 (CCK-8) (野生型EGFR on A431 cells) [nM] | EC50 (EGFR-ECD-hFc [2]) [nM] | EC50 (EGFR-ECD-hFc [3]) [nM] | EC50 (PD-L1-His [4]) [nM] | Binder
1 | no binding | 0.563 | 0.248 | 0.225 |  | Cetuximab-HC+Anti-PDL1-LC (antibody, V domains shown, Hybrid antibody: heavy chain of Cetuximab with the light chain of Anti-PDL1 (the common light chain)) VH: not shown VL: EIVLTQSPDFLSVTPKEKVTITCRASQSIGTTIHWYQQKPDQSPKLLIKYASQSFSGVPSRFSGSGSGTDFTLTINSVEAEDAATYYCQQSNSWPLTFGAGTKLEIKR
2 |  | 0.709 |  | 0.239 | 0.2 | PDL1-Fab-Cetuximab-IgG1 (bispecific antibody, Tetravalent bispecific antibody against PD-L1 and EGFR; two long polypeptide chains and four common light chains) heavy: not shown light: EIVLTQSPDFLSVTPKEKVTITCRASQSIGTTIHWYQQKPDQSPKLLIKYASQSFSGVPSRFSGSGSGTDFTLTINSVEAEDAATYYCQQSNSWPLTFGAGTKLEIKRTVAAPSVFIFPPSDEQLKSGTASVVCLLNNFYPREAKVQWKVDNALQSGNSQESVTEQDSKDSTYSLSSTLTLSKADYEKHKVYACEVTHQGLSSPVTKSFNRGEC
3 |  | 0.96 |  | 0.185 | 0.336 | Cetuximab-Fab-PDL1-IgG1 (bispecific antibody, Tetravalent bispecific antibody against PD-L1 and EGFR; two long polypeptide chains and four common light chains) heavy: not shown light: EIVLTQSPDFLSVTPKEKVTITCRASQSIGTTIHWYQQKPDQSPKLLIKYASQSFSGVPSRFSGSGSGTDFTLTINSVEAEDAATYYCQQSNSWPLTFGAGTKLEIKRTVAAPSVFIFPPSDEQLKSGTASVVCLLNNFYPREAKVQWKVDNALQSGNSQESVTEQDSKDSTYSLSSTLTLSKADYEKHKVYACEVTHQGLSSPVTKSFNRGEC
